Substrate: O=C(O)C(=O)O
Assay: purified protein
Details: typical values given as a range; decarboxylase activity; Mn enzyme

B1: Oxalate Decarboxylase (OxDC), WT, His6-tagged (Bacillus subtilis subsp. subtilis str. 168) (protein)
chain: MKKQNDIPQPIRGDKGATVKIPRNIERDRQNPDMLVPPETDHGTVSNMKFSFSDTHNRLEKGGYAREVTVRELPISENLASVNMRLKPGAIRELHWHKEAEWAYMIYGSARVTIVDEKGRSFIDDVGEGDLWYFPSGLPHSIQALEEGAEFLLVFDDGSFSENSTFQLTDWLAHTPKEVIAANFGVTKEEISNLPGKEKYIFENQLPGSLKDDIVEGPNGEVPYPFTYRLLEQEPIESEGGKVYIADSTNFKVSKTIASALVTVEPGAMRELHWHPNTHEWQYYISGKARMTVFASDGHARTFNYQAGDVGYVPFAMGHYVENIGDEPLVFLEIFKDDHYADVSLNQWLAMLPETFVQAHLDLGKDFTDVLSKEKHPVVKKKCSK
In the case of B1, the kcat is reported as 50 − 60 s^-1.

— article doi:10.1101/426874v1
